The supplement of paper PMC10567573

B1: CPN1 (parent)
chain: RGVRRTASTPTPDDKLFQKLAKVY

Variants of: B1
Experiment: protein stability index of a GFP-peptide fusion (GPS, HEK-293T) (PSI 1-6); higher = more stable
Conditions: c terminus: a fixed tail appended
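Note: lentivirally expressed fusions sorted by FACS into six bins by GFP to DsRed ratio, PSI derived from sequencing read proportions per bin multiplied by bin number.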

Going from RGVRRTASTPTIDDKLFQKLAKVY [P12I] to RGVRRTASTPTKDDKLFQKLAKVY [P12K], the protein stability index rises from 1.89 to 2.32.

Going from RGVRRTASTPTLDDKLFQKLAKVY [P12L] to RGVRRTASTPTMDDKLFQKLAKVY [P12M], the protein stability index rises from 1.44 to 2.01.

Going from RGVRRTASTPTNDDKLFQKLAKVY [P12N] to RGVRRTASTPTQDDKLFQKLAKVY [P12Q], the protein stability index rises from 1.98 to 2.05.

Compared with RGVRRTASTPTRDDKLFQKLAKVY [P12R], RGVRRTASTPTSDDKLFQKLAKVY [P12S] is higher in protein stability index: 1.89 for the first, 3.04 for the second.

Going from RGVRRTASTPTTDDKLFQKLAKVY [P12T] to RGVRRTASTPTVDDKLFQKLAKVY [P12V], the protein stability index falls from 1.81 to 1.68.

First: RGVRRTASTPTWDDKLFQKLAKVY [P12W]
Second: RGVRRTASTPTYDDKLFQKLAKVY [P12Y]
The protein stability index of the first is lower: 2.48 for the first, 2.94 for the second.

Compared with RGVRRTASTPTPADKLFQKLAKVY [D13A], RGVRRTASTPTPCDKLFQKLAKVY [D13C] is lower in protein stability index: 1.97 for the first, 1.2 for the second.

Compared with RGVRRTASTPTPEDKLFQKLAKVY [D13E], RGVRRTASTPTPFDKLFQKLAKVY [D13F] is higher in protein stability index: 1.24 for the first, 1.99 for the second.

First: RGVRRTASTPTPGDKLFQKLAKVY [D13G]
Second: RGVRRTASTPTPHDKLFQKLAKVY [D13H]
The protein stability index of the first is higher: 2.37 for the first, 2.08 for the second.

Compared with RGVRRTASTPTPKDKLFQKLAKVY [D13K], RGVRRTASTPTPLDKLFQKLAKVY [D13L] is lower in protein stability index: 1.88 for the first, 1.65 for the second.

Going from RGVRRTASTPTPMDKLFQKLAKVY [D13M] to RGVRRTASTPTPNDKLFQKLAKVY [D13N], the protein stability index falls from 2.59 to 1.89.

Compared with RGVRRTASTPTPQDKLFQKLAKVY [D13Q], RGVRRTASTPTPRDKLFQKLAKVY [D13R] is lower in protein stability index: 1.94 for the first, 1.63 for the second.

Compared with RGVRRTASTPTPSDKLFQKLAKVY [D13S], RGVRRTASTPTPTDKLFQKLAKVY [D13T] is lower in protein stability index: 2.02 for the first, 1.27 for the second.

First: RGVRRTASTPTPVDKLFQKLAKVY [D13V]
Second: RGVRRTASTPTPWDKLFQKLAKVY [D13W]
The protein stability index of the first is higher: 1.78 for the first, 1.61 for the second.

Compared with RGVRRTASTPTPYDKLFQKLAKVY [D13Y], RGVRRTASTPTPDAKLFQKLAKVY [D14A] is lower in protein stability index: 2.24 for the first, 2.05 for the second.

First: RGVRRTASTPTPDCKLFQKLAKVY [D14C]
Second: RGVRRTASTPTPDEKLFQKLAKVY [D14E]
The protein stability index of the first is lower: 1.56 for the first, 1.95 for the second.

Compared with RGVRRTASTPTPDFKLFQKLAKVY [D14F], RGVRRTASTPTPDGKLFQKLAKVY [D14G] is higher in protein stability index: 1.75 for the first, 2.78 for the second.

First: RGVRRTASTPTPDHKLFQKLAKVY [D14H]
Second: RGVRRTASTPTPDIKLFQKLAKVY [D14I]
The protein stability index of the first is higher: 2.32 for the first, 1.23 for the second.

Going from RGVRRTASTPTPDKKLFQKLAKVY [D14K] to RGVRRTASTPTPDLKLFQKLAKVY [D14L], the protein stability index falls from 2.35 to 1.64.

Going from RGVRRTASTPTPDMKLFQKLAKVY [D14M] to RGVRRTASTPTPDNKLFQKLAKVY [D14N], the protein stability index falls from 2.45 to 1.54.

Compared with RGVRRTASTPTPDQKLFQKLAKVY [D14Q], RGVRRTASTPTPDRKLFQKLAKVY [D14R] is lower in protein stability index: 2.35 for the first, 1.93 for the second.

Compared with RGVRRTASTPTPDSKLFQKLAKVY [D14S], RGVRRTASTPTPDTKLFQKLAKVY [D14T] is lower in protein stability index: 2.63 for the first, 2.38 for the second.

First: RGVRRTASTPTPDVKLFQKLAKVY [D14V]
Second: RGVRRTASTPTPDWKLFQKLAKVY [D14W]
The protein stability index of the first is higher: 2.19 for the first, 1.68 for the second.

Going from RGVRRTASTPTPDYKLFQKLAKVY [D14Y] to RGVRRTASTPTPDDALFQKLAKVY [K15A], the protein stability index rises from 1.48 to 1.58.

First: RGVRRTASTPTPDDCLFQKLAKVY [K15C]
Second: RGVRRTASTPTPDDDLFQKLAKVY [K15D]
The protein stability index of the first is lower: 1.95 for the first, 1.99 for the second.

Compared with RGVRRTASTPTPDDELFQKLAKVY [K15E], RGVRRTASTPTPDDFLFQKLAKVY [K15F] is higher in protein stability index: 2.2 for the first, 3.23 for the second.

Going from RGVRRTASTPTPDDGLFQKLAKVY [K15G] to RGVRRTASTPTPDDHLFQKLAKVY [K15H], the protein stability index falls from 2 to 1.75.

Going from RGVRRTASTPTPDDILFQKLAKVY [K15I] to RGVRRTASTPTPDDLLFQKLAKVY [K15L], the protein stability index rises from 1.76 to 1.8.

First: RGVRRTASTPTPDDMLFQKLAKVY [K15M]
Second: RGVRRTASTPTPDDNLFQKLAKVY [K15N]
The protein stability index of the first is lower: 1.33 for the first, 1.7 for the second.

Compared with RGVRRTASTPTPDDPLFQKLAKVY [K15P], RGVRRTASTPTPDDQLFQKLAKVY [K15Q] is lower in protein stability index: 2.12 for the first, 2.08 for the second.

Compared with RGVRRTASTPTPDDRLFQKLAKVY [K15R], RGVRRTASTPTPDDSLFQKLAKVY [K15S] is higher in protein stability index: 1.78 for the first, 2.02 for the second.

Compared with RGVRRTASTPTPDDTLFQKLAKVY [K15T], RGVRRTASTPTPDDWLFQKLAKVY [K15W] is higher in protein stability index: 1.7 for the first, 1.93 for the second.

First: RGVRRTASTPTPDDYLFQKLAKVY [K15Y]
Second: RGVRRTASTPTPDDKAFQKLAKVY [L16A]
The protein stability index of the first is lower: 1.63 for the first, 2.65 for the second.

Going from RGVRRTASTPTPDDKCFQKLAKVY [L16C] to RGVRRTASTPTPDDKDFQKLAKVY [L16D], the protein stability index rises from 2.52 to 4.21.

Compared with RGVRRTASTPTPDDKEFQKLAKVY [L16E], RGVRRTASTPTPDDKFFQKLAKVY [L16F] is lower in protein stability index: 2.68 for the first, 1.9 for the second.

First: RGVRRTASTPTPDDKGFQKLAKVY [L16G]
Second: RGVRRTASTPTPDDKHFQKLAKVY [L16H]
The protein stability index of the first is higher: 3.29 for the first, 2.64 for the second.

Compared with RGVRRTASTPTPDDKIFQKLAKVY [L16I], RGVRRTASTPTPDDKKFQKLAKVY [L16K] is higher in protein stability index: 2.61 for the first, 3.56 for the second.

Compared with RGVRRTASTPTPDDKMFQKLAKVY [L16M], RGVRRTASTPTPDDKNFQKLAKVY [L16N] is higher in protein stability index: 2.65 for the first, 3.32 for the second.

Compared with RGVRRTASTPTPDDKPFQKLAKVY [L16P], RGVRRTASTPTPDDKQFQKLAKVY [L16Q] is higher in protein stability index: 3.29 for the first, 3.31 for the second.

Going from RGVRRTASTPTPDDKRFQKLAKVY [L16R] to RGVRRTASTPTPDDKSFQKLAKVY [L16S], the protein stability index falls from 3.34 to 2.95.

Compared with RGVRRTASTPTPDDKTFQKLAKVY [L16T], RGVRRTASTPTPDDKVFQKLAKVY [L16V] is lower in protein stability index: 3.43 for the first, 2.29 for the second.

First: RGVRRTASTPTPDDKWFQKLAKVY [L16W]
Second: RGVRRTASTPTPDDKYFQKLAKVY [L16Y]
The protein stability index of the first is lower: 1.85 for the first, 1.92 for the second.

First: RGVRRTASTPTPDDKLAQKLAKVY [F17A]
Second: RGVRRTASTPTPDDKLCQKLAKVY [F17C]
The protein stability index of the first is higher: 3.19 for the first, 2.96 for the second.

First: RGVRRTASTPTPDDKLDQKLAKVY [F17D]
Second: RGVRRTASTPTPDDKLEQKLAKVY [F17E]
The protein stability index of the first is lower: 3.32 for the first, 3.95 for the second.

Compared with RGVRRTASTPTPDDKLGQKLAKVY [F17G], RGVRRTASTPTPDDKLHQKLAKVY [F17H] is lower in protein stability index: 3.25 for the first, 2.63 for the second.

First: RGVRRTASTPTPDDKLIQKLAKVY [F17I]
Second: RGVRRTASTPTPDDKLKQKLAKVY [F17K]
The protein stability index of the first is lower: 2.53 for the first, 3.5 for the second.

Compared with RGVRRTASTPTPDDKLLQKLAKVY [F17L], RGVRRTASTPTPDDKLMQKLAKVY [F17M] is higher in protein stability index: 2.15 for the first, 3 for the second.
